This note sets out measurements from PMC5766580, “Each protomer of a dimeric YidC functions as a single membrane insertase” (Scientific Reports, 2018).

This data set deals with the molecule itself. In words: native gel or EMSA; Blue Native PAGE of inner membrane vesicles from a cell lysate, Western blot.

B1: cysteine-less YidC (YidC0), monomeric construct (natural protein, E. coli, UniProt P25714 1-548, looked up)
chain: MDSQRNLLVIALLFVSFMIWQAWEQDKNPQPQAQQTTQTTTTAAGSAADQGVPASGQGKLISVKTDVLDLTINTRGGDVEQALLPAYPKELNSTQPFQLLETSPQFIYQAQSGLTGRDGPDNPANGPRPLYNVEKDAYVLAEGQNELQVPMTYTDAAGNTFTKTFVLKRGDYAVNVNYNVQNAGEKPLEISSFGQLKQSITLPPHLDTGSSNFALHTFRGAAYSTPDEKYEKYKFDTIADNENLNISSKGGWVAMLQQYFATAWIPHNDGTNNFYTANLGNGIAAIGYKSQPVLVQPGQTGAMNSTLWVGPEIQDKMAAVAPHLDLTVDYGWLWFISQPLFKLLKWIHSFVGNWGFSIIIITFIVRGIMYPLTKAQYTSMAKMRMLQPKIQAMRERLGDDKQRISQEMMALYKAEKVNPLGGSFPLLIQMPIFLALYYMLMGSVELRQAPFALWIHDLSAQDPYYILPILMGVTMFFIQKMSPTTVTDPMQQKIMTFMPVIFTVFFLWFPSGLVLYYIVSNLVTIIQQQLIYRGLEKRGLHSREKKKS
notes: membrane insertase YidC of E. coli, the plasmid-encoded yidC gene; cysteine 423 replaced by serine; Copies 2 is the dimeric form seen on Blue Native PAGE. 'Full length' rests on the words 'the yidC gene'; also called YidC-C0; monomeric YidC0; source: E. coli MK6, from plasmid pGZ119-YidC0, in inner membrane vesicles from a cell lysate
As for B1, the “stoichiometry N” value is 2.
